To fix the notation:
T1: mouse procaspase-14
T1 chain: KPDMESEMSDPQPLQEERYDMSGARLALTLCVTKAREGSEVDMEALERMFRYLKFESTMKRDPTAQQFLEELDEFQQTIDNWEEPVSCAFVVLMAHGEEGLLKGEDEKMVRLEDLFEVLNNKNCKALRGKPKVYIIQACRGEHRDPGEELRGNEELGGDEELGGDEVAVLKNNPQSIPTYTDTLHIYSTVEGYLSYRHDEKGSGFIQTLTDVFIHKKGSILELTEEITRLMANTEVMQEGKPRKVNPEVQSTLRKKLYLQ

T2: mouse procaspase-14
T2 sequence: T1 chain

B1: cytochrome c-activated caspase-7 in S-100 extract of human embryonic kidney 293 cells (protein)
chain: AKPDRSSFVPSLFSKKKKNVTMRSIKTTRDRVPTYQYNMNFEKLGKCIIINNKNFDKVTGMGVRNGTDKDAEALFKCFRSLGFDVIVYNDCSCAKMQDLLKKASEEDHTNAACFACILLSHGEENVIYGKDGVTPIKDLTAHFRGDRCKTLLEKPKLFFIQACRGTELDDGIQADSGPINDTDANPRYKIPVEADFLFAYSTVPGYYSWRSPGRGSWFVQALCSILEEHGKDLEIMQILTRVNDRVARHFESQSDDPHFHEKKQIPCVVSMLTKELYFSQ
B2: cytochrome c-activated caspase-3 in S-100 extract of human embryonic kidney 293 cells (protein)
chain: SGISLDNSYKMDYPEMGLCIIINNKNFHKSTGMTSRSGTDVDAANLRETFRNLKYEVRNKNDLTREEIVELMRDVSKEDHSKRSSFVCVLLSHGEEGIIFGTNGPVDLKKITNFFRGDRCRSLTGKPKLFIIQACRGTELDCGIETDSGVDDDMACHKIPVEADFLYAYSTAPGYYSWRNSKDGSWFIQSLCAMLKQYADKLEFMHILTRVNRKVATEFESFSFDATFHAKKQIPCIVSMLTKELYFYH
B3: cytochrome c-activated caspase-9 in S-100 extract of human embryonic kidney 293 cells (protein)
chain: MDEADRRLLRRCRLRLVEELQVDQLWDALLSRELFRPHMIEDIQRAGSGSRRDQARQLIIDLETRGSQALPLFISCLEDTGQDMLASFLRTNRQAAKLSKPTLENLTPVVLRPEIRKPEVLRPETPRPVDIGSGGFGDVGALESLRGNADLAYILSMEPCGHCLIINNVNFCRESGLRTRTGSNIDCEKLRRRFSSLHFMVEVKGDLTAKKMVLALLELAQQDHGALDCCVVVILSHGCQASHLQFPGAVYGTDGCPVSVEKIVNIFNGTSCPSLGGKPKLFFIQACGGEQKDHGFEVASTSPEDESPGSNPEPDATPFQEGLRTFDQLDAISSLPTPSDIFVSYSTFPGFVSWRDPKSGSWYVETLDDIFEQWAHSEDLQSLLLRVANAVSVKGIYKQMPGCFNFLRKKLFFKTS
B4: cytochrome c-activated caspase-6 in S-100 extract of human embryonic kidney 293 cells (protein)
chain: AFYKREMFDPAEKYKMDHRRRGIALIFNHERFFWHLTLPERRGTCADRDNLTRRFSDLGFEVKCFNDLKAEELLLKIHEVSTVSHADADCFVCVFLSHGEGNHIYAYDAKIEIQTLTGLFKGDKCHSLVGKPKIFIIQACRGNQHDVPVIPLDVVDNQTEKLDTNITEVDAASVYTLPAGADFLMCYSVAEGYYSHRETVNGSWYIQDLCEMLGKYGSSLEFTELLTLVNRKVSQRRVDFCKDPSAIGKKQVPCFASMLTKKLHFFPKSN

The first data set deals with T1, mouse procaspase-14.
Consider B1, for which the “cleavage/activation of 35S labeled procaspase-14 in S-100 extracts activated by cytochrome c and dATP, SDS-PAGE and autoradiography” value is “no cleavage/activation of ^35S labeled procaspase-14 was observed in S-100 extracts activated by cytochrome c and dATP”.
Same read-out and setting: the value for B2 was “no cleavage/activation of ^35S labeled procaspase-14 was observed in S-100 extracts activated by cytochrome c and dATP”; that for B3 was “no cleavage/activation of ^35S labeled procaspase-14 was observed in S-100 extracts activated by cytochrome c and dATP”; that for B4 was “no cleavage/activation of ^35S labeled procaspase-14 was observed in S-100 extracts activated by cytochrome c and dATP”.

For another data set, the system named is T2, mouse procaspase-14.
On to purified Granzyme B, for which the “processing (cleavage) of 35S labeled procaspase-14, SDS-PAGE and autoradiography” value was “a significant amount of processing was observed when procaspase-14 was incubated with Granzyme B, caspase-10 and caspase-8, but not with other caspases”.
In the case of purified recombinant caspase-8, the “processing (cleavage) of 35S labeled procaspase-14, SDS-PAGE and autoradiography” value was “a significant amount of processing was observed when procaspase-14 was incubated with Granzyme B, caspase-10 and caspase-8, but not with other caspases”.
Same read-out and setting: next, purified recombinant caspase-10: “a significant amount of processing was observed when procaspase-14 was incubated with Granzyme B, caspase-10 and caspase-8, but not with other caspases”; purified recombinant caspase-14: “Some processing was also observed with recombinant caspase-14 itself”.
